Assay results taken from patent US9040054B2.

Molecular target: serum IgE of birch pollen allergic (Bet v 1 allergic) patients
Test: ELISA inhibition: BM4 as inhibitor in serial dilutions, Bet v 1a immobilized at 200 ng/well, 5 sera

fold reduced patients' IgE binding capacity compared to Bet v 1a: 100 to 1000 fold
B1: BM4 (protein)
chain: GVFNYETETTSVIPAARLFKAFILDGDNLFPKVAPQAISSVENIEGNGGPGTIKKISFPEGFPFKYVKDRVDEVDHTNFKYNYSVIEGGPIGDTLEKISNEIKIVATPSGSTIKSISNKYHTKGDHEVKAEQVKASKEMGETLLRAVESYLLAHSDAYN
